Test results: article PMC7897488

Assays:
[1] = target: VcaM4I Helix-HNH fragment (residues 148-309) (Vibrio campbellii); assay: SEC; Superdex 75 10/300 GL, 15 mM Tris-HCl (pH 8.5), 0.3 M NaCl, 1 mM TCEP; bovine serum albumin, ovalbumin, myoglobin and vitamin B12 as molecular mass standards
[2] = target: VcaM4I HNH domain H224A variant (residues 179-309) (Vibrio campbellii); assay: as above

stoichiometry N [1] | Substance | stoichiometry N [2]
2 | VcaM4I Helix-HNH fragment (residues 148-309) (domain or fragment) | –
– | VcaM4I HNH domain H224A variant (residues 179-309) (domain or fragment) | 2
